Key:
Hck = Hck (UniProt P08631); assay: phosphorylation enrichment, bacterial display (enrichment ratio); higher = better substrate or ligand; peptides without Tyr show the background
c-Abl (mouse) = assay: as above
EPHB1 = EPHB1 (UniProt P54762); assay: as above
Jak2 = Jak2 (UniProt O60674); assay: as above
EPHB2 = EPHB2 (UniProt P29323); assay: as above
MERTK = MERTK (UniProt Q12866); assay: as above
AncSZ = assay: as above
Fes = Fes (UniProt P07332); assay: as above
c-Src = assay: as above
FGFR1 = FGFR1 (UniProt P11362); assay: as above
Sequence of FGFR1 (P11362 whole entry, looked up): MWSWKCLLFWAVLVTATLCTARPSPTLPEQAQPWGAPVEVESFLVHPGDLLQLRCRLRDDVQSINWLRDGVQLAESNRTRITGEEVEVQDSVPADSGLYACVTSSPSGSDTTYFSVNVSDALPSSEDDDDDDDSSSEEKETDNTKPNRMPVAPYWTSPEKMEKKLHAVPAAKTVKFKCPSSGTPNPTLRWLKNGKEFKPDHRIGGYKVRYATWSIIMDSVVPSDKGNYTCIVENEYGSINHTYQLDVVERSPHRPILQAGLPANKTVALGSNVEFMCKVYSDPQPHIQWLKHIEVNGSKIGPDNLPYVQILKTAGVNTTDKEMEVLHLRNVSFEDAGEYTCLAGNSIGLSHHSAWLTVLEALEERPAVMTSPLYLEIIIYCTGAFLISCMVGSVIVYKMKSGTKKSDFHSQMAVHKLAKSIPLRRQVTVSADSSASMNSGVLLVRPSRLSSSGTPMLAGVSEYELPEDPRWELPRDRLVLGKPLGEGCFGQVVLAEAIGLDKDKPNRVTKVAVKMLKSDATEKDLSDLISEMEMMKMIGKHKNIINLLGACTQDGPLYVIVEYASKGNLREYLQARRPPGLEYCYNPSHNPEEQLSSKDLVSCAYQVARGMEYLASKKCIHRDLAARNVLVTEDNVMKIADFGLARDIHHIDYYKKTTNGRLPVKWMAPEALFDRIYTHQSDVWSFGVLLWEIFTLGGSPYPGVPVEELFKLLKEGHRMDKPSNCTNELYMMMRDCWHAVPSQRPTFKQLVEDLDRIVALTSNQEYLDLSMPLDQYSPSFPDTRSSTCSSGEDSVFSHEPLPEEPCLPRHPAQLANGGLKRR

Fer (mouse) = assay: as above
Fyn = Fyn (UniProt P06241); assay: as above
Sequence of Fyn (P06241 whole entry, looked up): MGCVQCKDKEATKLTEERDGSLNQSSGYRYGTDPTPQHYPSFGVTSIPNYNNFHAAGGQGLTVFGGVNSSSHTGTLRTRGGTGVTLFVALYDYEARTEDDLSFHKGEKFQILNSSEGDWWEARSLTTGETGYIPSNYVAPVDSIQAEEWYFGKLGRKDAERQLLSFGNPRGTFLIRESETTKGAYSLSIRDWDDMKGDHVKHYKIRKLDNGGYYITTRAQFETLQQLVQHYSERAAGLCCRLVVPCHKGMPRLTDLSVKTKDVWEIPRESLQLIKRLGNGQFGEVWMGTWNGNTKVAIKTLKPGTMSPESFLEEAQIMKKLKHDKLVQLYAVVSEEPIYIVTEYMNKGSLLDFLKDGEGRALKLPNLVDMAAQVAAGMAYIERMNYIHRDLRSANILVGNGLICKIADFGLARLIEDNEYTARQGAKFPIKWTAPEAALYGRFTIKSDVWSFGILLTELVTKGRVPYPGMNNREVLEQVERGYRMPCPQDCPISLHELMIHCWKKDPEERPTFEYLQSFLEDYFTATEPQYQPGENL

FGFR3 = FGFR3 (UniProt P22607); assay: as above
SHP2-C SH2 = assay: SH2 binding enrichment of the phosphorylated peptide, bacterial display (enrichment ratio); higher = better substrate or ligand; peptides without Tyr show the background
Grb2 SH2 = Grb2 SH2 (UniProt P62993); assay: as above
Sequence of Grb2 SH2 (P62993 whole entry, looked up): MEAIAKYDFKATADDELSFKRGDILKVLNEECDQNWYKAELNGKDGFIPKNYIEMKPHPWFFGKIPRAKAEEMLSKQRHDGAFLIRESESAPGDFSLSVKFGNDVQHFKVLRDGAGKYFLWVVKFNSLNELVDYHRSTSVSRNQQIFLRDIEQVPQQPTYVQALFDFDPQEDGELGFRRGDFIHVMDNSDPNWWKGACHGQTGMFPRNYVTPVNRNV

c-Src SH2 = assay: as above
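Wherever SH2 binding enrichment of the phosphorylated peptide, bacterial display is given: peptide library displayed on the E. coli surface as eCPX fusions, selected cells deep-sequenced, score is each peptide's frequency after selection divided by its frequency in the input.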
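Wherever phosphorylation enrichment, bacterial display is given: 11-residue human phosphosite peptides and single-mutation variants displayed on the E. coli surface, counted by deep sequencing, each peptide's frequency after selection divided by its frequency in the unselected input library; frequency after pTyr selection over input frequency; kinase dosed for 20-30% of maximal phosphorylation in three min.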

Sequence of Jak2 (O60674 whole entry, looked up): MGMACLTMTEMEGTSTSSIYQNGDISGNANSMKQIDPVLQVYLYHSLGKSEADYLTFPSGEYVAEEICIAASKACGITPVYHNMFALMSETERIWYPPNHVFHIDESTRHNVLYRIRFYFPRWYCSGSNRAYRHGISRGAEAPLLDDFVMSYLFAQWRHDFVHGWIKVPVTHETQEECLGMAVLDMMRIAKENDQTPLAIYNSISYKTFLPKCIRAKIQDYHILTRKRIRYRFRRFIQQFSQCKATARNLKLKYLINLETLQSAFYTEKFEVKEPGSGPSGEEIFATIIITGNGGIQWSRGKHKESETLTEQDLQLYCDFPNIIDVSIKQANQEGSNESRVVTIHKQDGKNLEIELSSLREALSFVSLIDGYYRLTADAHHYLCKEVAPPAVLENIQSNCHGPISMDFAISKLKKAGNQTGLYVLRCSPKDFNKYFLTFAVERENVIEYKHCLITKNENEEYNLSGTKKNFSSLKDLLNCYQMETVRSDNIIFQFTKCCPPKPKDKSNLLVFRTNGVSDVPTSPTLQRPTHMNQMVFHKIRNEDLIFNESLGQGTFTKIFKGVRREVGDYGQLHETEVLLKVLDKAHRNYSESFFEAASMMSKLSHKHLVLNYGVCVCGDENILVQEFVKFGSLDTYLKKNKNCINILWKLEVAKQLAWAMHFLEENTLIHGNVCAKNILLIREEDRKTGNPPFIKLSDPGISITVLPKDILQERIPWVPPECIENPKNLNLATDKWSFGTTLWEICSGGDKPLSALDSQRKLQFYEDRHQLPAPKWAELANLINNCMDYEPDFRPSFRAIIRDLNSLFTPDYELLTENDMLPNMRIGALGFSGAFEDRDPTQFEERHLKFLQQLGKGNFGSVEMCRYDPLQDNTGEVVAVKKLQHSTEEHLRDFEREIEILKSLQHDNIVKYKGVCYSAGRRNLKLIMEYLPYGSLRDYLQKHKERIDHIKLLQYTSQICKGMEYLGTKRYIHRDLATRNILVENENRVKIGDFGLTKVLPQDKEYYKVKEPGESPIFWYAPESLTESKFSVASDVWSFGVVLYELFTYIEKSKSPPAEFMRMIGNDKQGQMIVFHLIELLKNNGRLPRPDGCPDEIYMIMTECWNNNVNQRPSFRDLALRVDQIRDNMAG
Sequence of MERTK (Q12866 whole entry, looked up): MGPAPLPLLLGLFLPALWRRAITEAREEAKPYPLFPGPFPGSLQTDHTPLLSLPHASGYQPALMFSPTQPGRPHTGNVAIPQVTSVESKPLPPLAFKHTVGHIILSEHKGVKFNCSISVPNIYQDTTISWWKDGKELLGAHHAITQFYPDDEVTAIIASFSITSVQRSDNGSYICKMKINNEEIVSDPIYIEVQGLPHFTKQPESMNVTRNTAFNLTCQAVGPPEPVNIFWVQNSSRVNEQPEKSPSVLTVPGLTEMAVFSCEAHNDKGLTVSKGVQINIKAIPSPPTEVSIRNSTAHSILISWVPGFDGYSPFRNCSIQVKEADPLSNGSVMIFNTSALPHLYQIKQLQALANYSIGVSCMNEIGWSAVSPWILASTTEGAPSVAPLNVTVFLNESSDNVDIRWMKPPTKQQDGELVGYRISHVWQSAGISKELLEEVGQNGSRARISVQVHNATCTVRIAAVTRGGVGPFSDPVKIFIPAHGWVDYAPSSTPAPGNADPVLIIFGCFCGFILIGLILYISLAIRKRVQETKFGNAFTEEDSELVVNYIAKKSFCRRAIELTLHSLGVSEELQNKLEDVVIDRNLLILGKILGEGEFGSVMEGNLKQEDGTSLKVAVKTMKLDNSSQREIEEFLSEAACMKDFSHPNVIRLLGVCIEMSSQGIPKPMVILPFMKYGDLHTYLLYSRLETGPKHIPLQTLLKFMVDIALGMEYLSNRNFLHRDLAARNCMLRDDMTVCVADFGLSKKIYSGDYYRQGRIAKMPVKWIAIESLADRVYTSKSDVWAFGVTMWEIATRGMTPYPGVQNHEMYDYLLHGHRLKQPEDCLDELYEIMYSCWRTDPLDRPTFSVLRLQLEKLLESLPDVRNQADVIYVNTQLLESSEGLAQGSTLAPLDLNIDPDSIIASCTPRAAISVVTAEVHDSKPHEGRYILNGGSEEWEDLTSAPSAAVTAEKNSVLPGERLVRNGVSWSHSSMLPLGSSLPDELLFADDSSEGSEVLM
Sequence of EPHB2 (P29323 whole entry, looked up): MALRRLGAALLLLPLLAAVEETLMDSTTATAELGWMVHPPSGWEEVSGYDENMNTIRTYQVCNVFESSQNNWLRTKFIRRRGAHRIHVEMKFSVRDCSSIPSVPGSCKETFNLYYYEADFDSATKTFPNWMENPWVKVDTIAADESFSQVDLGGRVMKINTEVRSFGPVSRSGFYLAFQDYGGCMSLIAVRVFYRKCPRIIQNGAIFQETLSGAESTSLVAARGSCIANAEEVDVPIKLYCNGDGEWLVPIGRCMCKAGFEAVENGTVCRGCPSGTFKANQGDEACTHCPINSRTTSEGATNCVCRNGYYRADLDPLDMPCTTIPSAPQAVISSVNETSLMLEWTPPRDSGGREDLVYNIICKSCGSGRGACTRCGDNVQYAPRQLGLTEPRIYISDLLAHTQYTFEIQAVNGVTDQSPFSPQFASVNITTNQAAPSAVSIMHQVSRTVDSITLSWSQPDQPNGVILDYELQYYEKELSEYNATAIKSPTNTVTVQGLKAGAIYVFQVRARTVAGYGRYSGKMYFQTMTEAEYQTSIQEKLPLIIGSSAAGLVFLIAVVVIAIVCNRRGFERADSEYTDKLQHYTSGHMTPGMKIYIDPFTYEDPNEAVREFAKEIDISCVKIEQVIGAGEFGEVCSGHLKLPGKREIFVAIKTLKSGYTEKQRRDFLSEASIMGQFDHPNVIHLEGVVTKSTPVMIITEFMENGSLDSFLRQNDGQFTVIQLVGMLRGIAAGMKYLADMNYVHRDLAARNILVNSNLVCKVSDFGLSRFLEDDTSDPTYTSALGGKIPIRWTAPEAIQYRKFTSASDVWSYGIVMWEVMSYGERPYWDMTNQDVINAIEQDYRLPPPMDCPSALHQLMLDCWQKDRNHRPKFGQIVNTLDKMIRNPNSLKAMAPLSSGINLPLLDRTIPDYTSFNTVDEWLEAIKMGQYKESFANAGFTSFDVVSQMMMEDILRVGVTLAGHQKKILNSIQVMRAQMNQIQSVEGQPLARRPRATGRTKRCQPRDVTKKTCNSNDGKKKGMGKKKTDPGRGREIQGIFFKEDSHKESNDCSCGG

Sequence | phosphorylation enrichment (Hck) | phosphorylation enrichment (c-Abl (mouse)) | phosphorylation enrichment (EPHB1) | phosphorylation enrichment (Jak2) | phosphorylation enrichment (EPHB2) | phosphorylation enrichment (MERTK) | phosphorylation enrichment (AncSZ) | phosphorylation enrichment (Fes) | phosphorylation enrichment (c-Src) | phosphorylation enrichment (FGFR1) | phosphorylation enrichment (Fer (mouse)) | phosphorylation enrichment (Fyn) | phosphorylation enrichment (FGFR3) | SH2 binding enrichment (SHP2-C SH2) | SH2 binding enrichment (Grb2 SH2) | SH2 binding enrichment (c-Src SH2)
VVTFSYKPPGN [RBL2_Y544] | 0.429 | 0.673 | 0.455 | 0.911 | 0.476 | 0.431 | 0.634 | 0.696 | 0.423 | 0.592 | 0.367 | 0.42 | 0.519 | 0.7 | 0.979 | 0.711
WCKPLYFSCAV [MMS22L_Y28_P27L] | 0.607 | 0.821 | 0.737 | 1.57 | 0.598 | 0.907 | 1.26 | 1.21 | 1.18 | 1.14 | 0.541 | 0.533 | 1.1 | 1.22 | 1.5 | 1.32
WNRDKYAATTT [TRIM39_Y439_G436R] | 0.375 | 0.542 | 0.448 | 0.65 | 0.401 | 0.471 | 0.734 | 0.59 | 0.411 | 0.439 | 0.37 | 0.358 | 0.34 | 0.798 | 0.772 | 0.498
WPLKWYAPECI [ZAP70_Y506] | 0.405 | 0.666 | 0.886 | 1.03 | 0.766 | 0.433 | 1.25 | 1.39 | 0.425 | 0.573 | 0.598 | 0.565 | 0.806 | 0.817 | 0.83 | 0.501
YEDTLYTVLHR [UNC13D_Y61_A59T] | 8.16 | 3.32 | 12.2 | 1.39 | 9.31 | 8.84 | 2.9 | 1.41 | 6.38 | 2.08 | 9.1 | 7.58 | 2.09 | 0.525 | 0.761 | 2.26
YEEDSYSHVMA [FDPS_Y388_I391V] | 0.606 | 0.696 | 0.59 | 0.944 | 0.65 | 0.464 | 1.87 | 1.17 | 0.587 | 1.22 | 1.64 | 0.775 | 1.27 | 0.69 | 0.772 | 2.64
YEKFLYFLPAS [DYNC2H1_Y346_H341Y] | 0.827 | 0.89 | 0.764 | 2.7 | 0.644 | 2.16 | 1.5 | 1.31 | 0.938 | 0.57 | 0.581 | 0.868 | 0.91 | 1.19 | 1.05 | 2.21
YENGEYIVRQG [PRKG1_Y247_I249V] | 0.495 | 0.582 | 0.543 | 0.784 | 0.464 | 0.424 | 1.02 | 0.937 | 0.466 | 0.495 | 0.483 | 0.494 | 0.729 | 1.14 | 32.9 | 8.91
YFVVEYRDQKP [MUC17_Y4332] | 0.589 | 0.788 | 1.23 | 3.02 | 0.909 | 4.97 | 2.1 | 1.66 | 0.728 | 13.8 | 0.75 | 0.786 | 12.1 | 5.95 | 1.17 | 3.98
YLENYYDLEKD [MMP3_Y42_K45E] | 1.63 | 0.957 | 5.81 | 1.15 | 3.24 | 0.752 | 1.76 | 1.47 | 2.29 | 7.06 | 0.781 | 4.51 | 5.26 | 0.557 | 0.769 | 0.985
YMRGMYFRMKD [PLA2G6_Y541] | 0.44 | 0.657 | 0.42 | 1.16 | 0.523 | 0.439 | 0.924 | 0.947 | 0.384 | 0.462 | 0.423 | 0.416 | 0.589 | 1.5 | 1.59 | 1.3
YPPTHYIRRMP [SLC4A11_Y820_V824M] | 0.339 | 0.484 | 0.455 | 0.4 | 0.412 | 0.447 | 0.717 | 0.597 | 0.381 | 0.451 | 0.59 | 0.397 | 0.493 | 0.765 | 0.875 | 0.606
YQEPVYSVAFS [TBL1X_Y509_H504Y] | 11.1 | 29.6 | 18.9 | 0.989 | 26.2 | 12.7 | 5.95 | 4.74 | 8.72 | 6.72 | 17.5 | 12.4 | 5.72 | 0.527 | 0.781 | 2.93
YSSLGYPLPEG [ZSWIM4_Y87_P89L] | 2.05 | 0.978 | 0.53 | 0.785 | 0.758 | 7.91 | 1.01 | 0.904 | 1.57 | 1.28 | 0.687 | 2.63 | 1.06 | 10.8 | 0.986 | 2.8
YTDPYYDYEIE [ZC3H18_Y372_A368T] | 0.967 | 0.871 | 1.39 | 1.31 | 1.06 | 1.31 | 2.13 | 1.27 | 2.94 | 9.65 | 1.22 | 1.96 | 7.56 | 0.494 | 0.822 | 2.02
YTTIHYNYMCN [TP53_Y234_C229Y] | 0.917 | 0.92 | 1.81 | 1.26 | 0.897 | 4.13 | 1.43 | 1.16 | 1.27 | 4.5 | 2.08 | 0.976 | 3.35 | 2.47 | 1 | 6.95

Source: the supplement of paper PMC10065799, “High-throughput profiling of sequence recognition by tyrosine kinases and SH2 domains using bacterial peptide display” (eLife, 2023)
